Assay: protease stability score; higher = more stable; yeast display proteolysis, trypsin and chymotrypsin;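 further: relative to predicted unfolded state with 0 unfolded-like and 1 meaning tenfold more protease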
With “SEEEELAREAMRILIEAIVTGDEDEIRRLLDPHVRIEVHIGDKSIKNHGRESMVRILRWLGVDHIDIKRFRLEIQGEFLHLDLDTEFHFNGVTVRTRINNRSLKINGRWQTKEVKYFIE” the protease stability score was 1.27. With “SEKTHEFQKLYHEWIRVEWTGDFHMLSHMADPNTRVELIINGRTVERIGREDMIELVRRLKHEIRFHDFDIKRVRIQGEKIYADTHEDGEINGQRRETDAKLELDVYNGKIESVFWYIE” the protease stability score was 1.13. Work on “SEEEKEMEDFLREFEKNLRTGDEEQIRRLADPHVRMEVNGVEHIGRKHVSRFWYHLVRRADHIHIEVEDMHLVGEKMELIGILRLRVNGRDLTHHHRLIVDKIDGRWFLRESRIH” yielded a protease stability score of 1.73. With “DEITHEIEHNLKLLLKAWETGDEHLLTEMIDPHDKIHIGDKTIIGRELRLEIEKRLGAKVVEVEIKRIEVQGDKILMHGTIHIEIGDKRFERESRFVAHKFNGRWHQKSLDII” the protease stability score was 1.21. With “SEEKKESDKFFEEWVRSAQTGDEDRVREMLDPNARVEIGDKTYVGRELFLRIMVEIRIKDIILKDIRIQGDKLRNDGELLITVDGKEIRVETHIIAEKVDGRWVLSRFVWH” the protease stability score was 1.35. In the case of “DEDEKHMEEWLRLLKHALVTGDFEMILRNLDPHYRNDINGREFHGWEFFDKLMKEIRVKDSHLTHIEIYDGKAISETNVDLHVDGKDVLLDTRVVIDKYNGRWIIRHVSID”, the protease stability score is reported as 1.23. In the case of “TEDEEAAERMIKTWLEKIITGNEEFLTEFMDPDTKVDINGKELHGWEDILQHLRHIRVHDMHVEIEDVRFINGVIEIRGTMHKDGEVNGRRTQTEQHVVFVLQKIDGRWRLRSYSIR”, the protease stability score is reported as 2.27. “DEDEEIARKIMEMLIEELRTGDEEKSTENADPNVRVHFNGKDLHGWEEFSRLASKFKGLRFILRRMDVFNGRVVIDGEERWDGRTHRVILHIEKVNGRWRIKQVDIH” showed a protease stability score of 1.63. Work on “SEDREFAEKMLRIVSDLENTGDEEKARHLLDPNVRSVIDGQDLIGWHLRRHWLHELRIKSHRVDVHDIHVYNGQIEFNVREDGNIVVNGVEIRIELRTKMTFRKFDGQWYVKSIEIK” yielded a protease stability score of 1.45. With “DEETQNVRTILEEFVHDFETGDERLMHRYLDPNVRIDWNGRDYHGRETMFQMIRELSDKIKNIRIRIEHIDIINGVIIIHGDLHYNGKDVKTTLYFLKVNGRWLITRLEYK” the protease stability score was 1.39. Work on “REDEELVKQVVKDFDHAVETGDEDRLRELLDPDVRISQGDKEFHGREDYELHLRQWRYENHRVHDVRIYGDKARIHGHLHLKIGDKHLEVETILILHKVNGRWRVRHLEIR” yielded a protease stability score of 1.83. In the case of “TEEEREFKEFVEHWMRAIETGDEELLYKLLDPNTQLNYNGVNNHGWHVIKHLEELLGIKVREMRIRDFHHIGDKIVLDVEDIIRIDGRTIILRTEILIVKVDGRWHLKSERVK”, the protease stability score is reported as 0.965. “DETTQYIREILEIMRRTFHTGDFDTMLELMDPHARIVIGEKDEHGWEAAHHQMEYLLREWRIHDVEIRDVELQGDKIRVKLIVTGRIGDKLTLIDVELHVLKVNGKWYLKEISIR” showed a protease stability score of 1.19. “SEEEELTEMVARVIVHSLLTGDEENLDHMLDPNVKIDNDIDGKEERLHGREDRRRVNEEWGWSNIHWIVRRIRTQGNKATVDGEIRFDGVTEHVRLIVILFNGKVHLVRLKHL” gave a protease stability score of 0.77. In the case of “SDEEIAAKYMEDELQKSLKTGDEQKFRHLADPNVRSDINGVELIGWELIIKYWREIRSKVEDVRLKRVDVQGDKIHLHGLVDVEINVNGVRTREHLESHFVIVKIDGRWYVHSIEIR”, the protease stability score is reported as 0.659. In the case of “DEEKKDLDILIEILFEIIYTGNEEKFRELVDPNAKSRVGDKKTHGREDATKLLSKKWRHMRIRTMDVHDFRHYDGQIDVDSRLDGDINGVELLLEVRLILVKYDGRWLIKNIHIQ”, the protease stability score is reported as 1.43. Sequence “DEDKDLIDLHFEIYQQVVLTGDFRKFRRLFDPNTRWEIGDKEFHGREHLSKLHKDLLEHLGVRVREVELHNFHIQGDKIHLDTRIHVHAENHHMIHITEIISTKIDGRWIITELRLR” has a protease stability score of 0.826. Sequence “DERTKSYELALRIIEHVNKTGDEEMSTHMADPNARVVQGEKEIHGRELFIRWMKEIRVEDIKHRDKTIIGDKLILRVDIHGIIDGRHEDFHVILIVTKVNGRWHLEEVRIH” has a protease stability score of 1.36. “DEEDEESHRLMRETIHLLLTGDEEVWAQLADPDVRVLFNGVDYHGREEFLRIWHHMVKEIRVDKHEIKTIEVQGDKVLSDIRMHVEFNGKRTKVRVNLRLQSINGRTKYLSIHIH” gave a protease stability score of 1.21. With “SEDDQLVRELMRRIMKNIMTGDEEKHLNLVDPHARTIFDGREYHGRELYTMVFRILYNRIDHWTDLKVEHVSIYDGVIEIHVRADVDINGKRTEITMIIFVNKVNGRWIIEYVVYS” the protease stability score was 1.37. Work on “SEEEEWMEEFRERWERNFMTGDEDAMRELADPNVRIDIGEWDVHGREHLAELLKRHLDTLGINHVEFDHSTVIDGVIHIHMTINVNGKRIYSEVRLLVVNGKLKHSHYDIK” yielded a protease stability score of 1.01. With “DEDRRDIDDFLRLMLEATHTGDFKSFLELADPNMRIQIGDKEMVGRENIERWFEEDHRQAGIQRVETELRVRSKLLIGNKMHVDIEIRRRYNGVEEVYDVELILLKYNGVWWLEEFRVR” the protease stability score was 1.58. Work on “DEEEEMAKKILDDLTHLLETGDEEVFRHLADPNVKVDELVNGRKIHRHGRQDWREIFKEMRLRHIHIRRVHVQGDKLHNDIEVDGDFNGRSHRDRTELILVIVDGRLRTIEIHVN” yielded a protease stability score of 1.18. In the case of “DEDERLMQKAMEELWDIWHTGDEDRYNELADPHDRFEVGDKEIHGREETSHFLTEFRKRVKGIRILTDRFDHRRIGDKVVLRLETRIEIDGVRIKTRLIFIIRKFNGKWHIHSIIVIIE”, the protease stability score is reported as 0.673. In the case of “DDLHEDTKRYLKEWIDLMYTGDEEKIFENMDPNTRIIDENHELHGREEVKDWARRMARELRHREFELTHLEVQGNFIHVRGLLIGDQGDKVIIRDVEIISIKINGRWRIESVRFE”, the protease stability score is reported as 2.34. “DYHEEIMRKVHEFFLAMVTTGDEEMIEKLFDPHVRIDINGRDHHGRDVAVKIWEELWREIRFKHVHLHDMKSFNGVLHLHVREKVDVNGRDLIIETHFVIRKFDGQWHLHSLKIN” showed a protease stability score of 1.38. “TEDERDAKRMAETMVKLWETGDWRTLFELADPDMRFEYGDKRFHGREKLIKVLRDIFERLGIDHSHVRDFKIIFVGEKVEVRLDIETHFDGRTEEFHIEINVRKIDGRWRLKSMHIEIR” showed a protease stability score of 2.02. “STEEEELRDYLEILDHLWKTGDFDRLLNLIDPHVRLEVNGREHHGMRWFETIIRKLGHDNISVHINNEKVHIVDGRAHWEGKKILIYDGRFHDFHTHLFFLKIDGKWKLKEVEYH” gave a protease stability score of 1.26. “DEDDKKAEDFANVIAHNLMTGDEEKHNKMIDPNVKIFINGQTVHGRDEFSKVMRRYKNLRIDWEVEELEIVNGQVRLKGHLHVEVNGVETRIDTHIVVTKVNGRWHMKEIYYH” gave a protease stability score of 1.62. Work on “DHHEELVERIAREWIHAWKTGDEKRLRELMDPHVRMNFNGQELHGRELVTNFLHEFLERFDHQEHHIKRFTVVNGVMHIDGELDLNFDGRRYRHRVHIHIFVFDGRVKHVEIEIR” yielded a protease stability score of 2.29. “DEEKKDVHKIWELFVEHYYTGDEEFLHRMADPNVRSDVNGKELHGRESLLSLMREWIDRADVIQHIDVEDRRIQGDKAYIRTRFVGLVNGKPVSTDVTIILSKVNGQWFMHRIVIK” showed a protease stability score of 1.61. Sequence “SEEEEIVEKMARDLFEAMRTGDEDTLLKLLDPNVKHHWNGVEYHGWHDLHHWVERFKNMKVHFRINSVKVIGEKVHIKGELNLIFNGKIIRTDVDIHINLFNGRIKESTSDTN” has a protease stability score of 2.04. Work on “HEEEKEIEKWVRLLLEVIQTGDEHWFERMADPNARVEVGEFEKHGRELFFEMTVRIVKKLGVDHVQLRRFDLIDGVALDHMELRIGDKHVEFIHISSKVNGRWFDKEVRVREI” yielded a protease stability score of 0.939. In the case of “SEHEKHNRDVVRIVLHALLTGDEELFEENADPNVRTEIDVNGKEIQIHGRSKWVEWLRREIERFDHVRIDLKRIDVQGDKLHTDGHLRLKQGDKEITTDVRLHIVVVDGRIDSMEMSVH”, the protease stability score is reported as 2.1. “SEQEERETRFMEKAWDLLRTGDEHLLERLADPNARLEIDGRKKHGRETIIEYFRHVKEHLGFKHIELHHMHLVDGVLHIDGIFRYGDKTHRTEIVYYVVNGRLERIEIIIL” showed a protease stability score of 1.22. With “SEEEEHAKHIARLWMESFYTGDEHHMSHLLDPNVRIIIEIGDKSDEFHGREETVKWVRKYLREMRLKNFEIHDQRVFNGVANDDTIVHGNVDGRERNIRTHIIIVVVNGRVKEVKVEVK” the protease stability score was 1.6. “SEIDKESEEVARRLLHMEYTGDEEKMIKLLDPHVRLDINGQLFVGREEAERALRQYWHRVDHIHSIEIHDYKTQGDWFHLDIRVDGEIDGQRRDFRVIVHTRIVNGKVKEMHLKFH” showed a protease stability score of 1.65. In the case of “SEWEEFMERMLELVIEVMKTGDFDRFRSLFDPHVKIRIIIGDKHHEFHGWLWLRTLIEKMGIDHLQINVRSYRIIGDKLEVDGELLSHYNGRTSHRTVHYHIVIINGRLHHITIEYH”, the protease stability score is reported as 0.214. Work on “DEQEQHAFKFFEHHTEILKTGDWEEVRKNLDPHVRLHVNGVEMHGMEHATELALKEDTEIRSELRLEDVDVQGDKVRFDIRLIYHIGDKTIVHKIDLVMIKINGRWLVHSIHVE” yielded a protease stability score of 0.36. With “DDEEHEARRVLEELIRVWITGNEELEDRLMDPNVRFVYGEYDLHGMEHFRHLLTVLKDQADHVSDVKLHDLEIQGDKVITRSVVDGVFNGRRFHRSQIIILIKVNGKWRIKSLHIH” the protease stability score was 1.33. Work on “SEDERDMERFNRLVSHAMETGDEDTLNHLADPNVRVHIGDKDLHGREDYSRWLHELIRRVDYMEVHIHDERLQGDKAIVDSRIRLKFDGVETRIETILYLKKFDGRWRMTTFELK” yielded a protease stability score of 0.705. For “DQEEQDIRRAIRLYLELLLTGDWKTLEKLIDPNVRLNFNGQEYHGMRDVLRLLKEILEELGIKHVHLHDERIQGDKVKVDTRVEINGKHSEVILVAEKINGKWVVHHLEHNHK”, the protease stability score was 1.24. “REEEEHLERVMSLILLIMSTGDFKTLSELFDPHARLRVGDKHLIGWSFVADWIVKFKNMQLRHHRRHVVNGVVEVEDEFRVGDKRFTLRLLFLVVDGVVKEVHIEIEDR” showed a protease stability score of 0.833. In the case of “SEDEENIRRIIRRFVHTFETGDEDIMRELADPHVRLIFNGQHYIGREWVVEIMSEHVKRADHTEVHIHEIHIIGDKVKVHSRLHINVDGVFRNIELRIDIMKVNGRWLIHHVEFR”, the protease stability score is reported as 1.48. In the case of “SHHEEHLHEMLRLILEAWETGDEDFLEELADPRVQLIVNGKDIHGRHVFRTMLRTHIEQMRIKRVTPRRVRNYDGRVESDIEVDGIIDGQRRKYRTTWVVEIIDGRVESLSLHFI”, the protease stability score is reported as 0.723. Sequence “SEDEETSEELARRFSKAMKTGDFDHLVQQLDPNVRIDINGKEMIGRERFEEDMRRLNLSNIHFITRDIKVEIQGEMLHVRIDGHTRINGKDVKTHDIWIFEKIDGRWRLKEWIVHEE” has a protease stability score of 0.913. “DEMKEWIRELIERWTHAFLTGDEDELKRLVDPHAKLDINGRDVIGREDFVEHLRRLFEELGVKHVSSRMRDIKIVNGRAHVDSEFRLRVGEKQESHRMHIISDKYNGRWVIQSIHVE” showed a protease stability score of 1.93. Work on “SDLDEVARHATQLIEEVQQTGDWHTLMRLADPNTRLLIGDKVIHGMTELIRILDELYERWGVSKVKVRLHDVRVQGDKVDVDTRSEFNGREVKVRFIIRKVDGRWHLKSVEEHLD” yielded a protease stability score of 1.12. Work on “SEEEELLRRITDEMIESMLTGDEKYILENVDPNVRLHIGDKTYVGWETYEDHMRERLEKLGADHMKLEHKDHQGNYTLIEGNLSFNGRELEVRIKLIIVNGVLEQVEVRFD” yielded a protease stability score of 0.955. “SETEELASKVTKEFKRVLETGDWRVSLNLLDPDTLLEINGVEFHGREAWEEFNERFKNVKIHFIERDMKIVGNKIKIEGHLEDRWNGQSTHREMHLVFDKVNGRWFNRSVHFG” showed a protease stability score of 0.57.

— the NTF2 design screens of Basanta et al. (2020)
